{"source": "patent US20260117244A1", "about": "“INHIBITORY RNA FOR THE CONTROL OF PHYTOPATHOGENS” (priority 2021, published 2026)", "molecules": {"B1": {"name": "32 (nucleic acid, listed as Golovinomyces orontii)", "chain": "GGTTCATCACCTCTAAATTTGTGAAGAGGTTTCTAAAAGATTCATCTCATCTCATAGCCAGAATTTAGACGCTGTATAAACGATGTTTGGGTCAGGATGTCCGATCAGAATGTATCCAAGAGTCAAGCGTAAATTCTGCAGGCTAGATGTATTTCGTCCCATCATGAATCGTAGATACAAAAGCGGACCTTTTGGCTATACGATGGCACAGGCGCTCGTTTACATGAAGCATGGTGAACCAGACGATGTACTCTCTCTTCATCGTCACTCCATTACACCTACACTTCCACCAGATTCTATTTTCTTACGGACACTTGCAAGCCCAATCAATCCAGCCGATATCAACCAAATTCAAGGTGTCTATCCGTTAAAACCAGAATTCTCGCCTCTACTTGGTACACCGCTTCCGAGCGCTGTAGGTGGGAATGAAGGCTGTTTTGAAGTTGTTTCACTCGGCTCTTCAGTGACTGATGTTAAGAAAGGCGACTGGGTGGTGGCAAATACCCCTGCACTCGGCACCTGGCGTACGCATTTGGTTGTACAGAAGTCTGATATTTTGCCCGTAGAGAAAAAAGGGTTAACCGCAACACAAGTTTGTACTGCATCGATCAATCCGCGAACAGCTTACTGCATGTTGAATAACATTGAGAAACTGCAGAAAGGTGATTGGTGGATTCAAAATGGAGCCAACAGTAGCGTGGGTCGTGCCGCAATTCAATTGGGAAAGTTATGGGGCTTTAAATCAATAAATGTCATTAGAGATCGACCAGACGTGGTATCTACCGAGTCCTTGCGGGCTGAATTGTTAGAATTAGGTGCTACACATGTTGTCACAGAAACAGAGCTGCTTGACAGAGGCTTTCGAGAGCTCGTGACGAAATGGACTAATGATAATAATAAGGGAATTAGATTAGGCTTGAACTGTGTTGGGGGTAAGTCTACAACGGCATTGGTAAAATTACTCGGGAAAAGAGGTCATTTAATCACATATGGTGGCATGTCTCGACAACCTCTACAACTTCCAACCAGCCGCCTCATATTTGATGATCTACGTTTTAGTGGCTTCTGGATTAGTCGCTGGTCCGTCGATAATCCTCGGGAAAGTCAGCACATGCTCAACAAAGTTCTGGACCTCATTCGTACAGGTTCTTTGAAGGAAACTCCTCATCACGAAATACTCTGGAATTGGGATACTAAGATTCAAGTACTCAATGAAGGAATTAAAGGTGCACTTCAGGGTTATCGAAACGCCAAAAATATTCTTGTTTACGGAGATACATAAATTTTGAGT", "modifications": "listed as DNA"}, "B2": {"name": "70 (nucleic acid, listed as Golovinomyces orontii)", "chain": "ATGTCAAGATCCCTTCACAATCTGAGCACCATTCAGAAGCTTTTTCCAATCTTGGGACCATCTCAAATTACTTCTAAGTTTTTGCTATGTTCACGTACATTATTTAGGCAGACTCGCTACAGTTCCCAATTTAATTTGGGCTATACCCGGGCCATTGAAAGGAAACCCTTAACTTTAAAGTCTATTGAATCTTTGTACAAAAGAGAGGAGCCCATCTTGGCACTCACTGCCCACGACTTTCCCAGTGGATATATTGCTGATGAAGCTGAGATTGAAATCGTACTTGTGGGAGACAGCCTGGCCATGGTAGCAATGGGGTTAGAAGATACAAGTGAGATTCTACTTGAAGAGATGCTACTCCATTGTCGCTCTGTTTCTCGAGCTGTGAAGACTGCTTTTACGGTAGGGGATCTTCCTATGGGATCCTATGAAGTATCCCCAGAACAGGCTCTAATTTCTGCTATTCGGATGATTAAGGAAGGTAGAGTAAAAGCTATTAAATTAGAAGGAGGCGCAGAAATGGGCCCAACCATAAAGAAAATAGTTACTGCCGGTATTCCGGTTCTCGGGCATATAGGGTTAACTCCGCAACGACAAAATTCTTTGGGCGGCTTCCGAGTACAAGGAAAGACCTCCAAGAGTGCACTCAAGATTCTTGAGGATGCATTAGCCATACAGGAAGCAGGCTGTTTTGCTGTTGTGATTGAGGCTATACCCGCAGAGGTAGCTACCATAATTACAAAGGAACTTTCAATCCCAACTATCGGTATTGGCGCTGGTAATGGCTGTTCAGGCCAAGTACTAGTTCAGGTTGATATGACTGGAAATTTTCCACCCGACCGTTCGATACCAAAATTTGTCAAAAAGTATTGTGACATTTGGAATGAGAGCTTGATGGGGATACGATCATATCGAGAAGAAACTAAGTGTAGGAAGTTTCCCGCACACGAACACACTTACTCAATCCCTAAAAATGAACTTGCTGAGTTCGAGAGAATACTAGCTTCTAAAGAACACTAG", "modifications": "listed as DNA"}, "B3": {"name": "79 (nucleic acid, listed as Golovinomyces orontii)", "chain": "ATGTCAGCATCTAGCCTTTCTCAGTCTACAGCTGAGAAAAGACACGAAGAATATCAGTATTTAGATCTGATCTCCGAAATAGTAGAGACAGGGGAGCATCGACCAGATCGAACTGGAACTGGAACCTTTTCTTTGTTCGCGCCAAAACCTTTAAAATTCCAGCTTTCTGAATCTGGAAAGCCGATTCTGCCCCTAATTACAACCAGGCGCATCTTCTTACGTGCTGTAATCACCGAACTTCTCTGGTTCATATCCGGCTCGACCTCCTCCATTCCTCTGGTAGAAGCAGGAATAAAGATTTGGGATGGAAATGGAACCCGTGAATATCTTGATTCGGTTGGTTTATCTCATCGTGATGTTGGAGATCTTGGTCCAATATATGGATTCCAATGGCGTCATTTTGGTGCCGACTACGTTGATGCTAACACTGACTATACTGGGAAAGGGGTTGATCAACTCGCTGAAGTTGTTGCAAAACTCAAGACAAATCCATATGACCGCCGCATTATTCTTACAGCCTGGAACCCGCGGGATCTAAAGTCAATGGCTTTACCGCCTTGTCATCTTCTTGCACAATTTTACGTCTCATTCCCACAAGGTAGTAAATCTGTTGGGACTCTTCACTGTCTTTTATATCAGCGTAGCTGCGACATGGGCCTTGGAGTACCATTTAATATTGCAAGCTATGCCTTACTCACTCATATGTTGGCTCATACATGCGAACTACTGCCTGGGACTTTGACGCACACCATGGGTGATGCACATGTCTATGCCGATCATGTTGAGGCTTTAAAAACACAACTGACACGTGAGCCGCGTCCATTCCCTGAAATTGAGATTAGGAAAGAAAAAGGAGGAAGTATAGACGGCTGGCTTGTCGATGATTTTCTCATCAAAGGCTACGAACCGCACAAGTCTATCTCGATGAAGATGTCGGTGTAA", "modifications": "listed as DNA"}, "B4": {"name": "64 (nucleic acid, listed as Golovinomyces orontii)", "chain": "ATGGAGGCATGTGTGATCGACGTGGTGGCTACTAGGGTAGACGATTGCGAAACTCCAGCGTCGAAAGATACCTCCAACGCTTGGTGTCATCCAGGAGCTGCCGCTTTCGATTTTCGCAGTGATGTCTTTACTTCACCGACTTGCTCAATGCTCGAAGCAATCAAAAACACAACCTTACTCGATGATGTCTATCAGGCTGATCCTACCACAAATGATCTGGAATCACACTTGGCAGCGCGCACATCTCATGCCGCAGCACTGTTTGTCTTGTCTGGCACTATGGGGAATCAAATAGCTCTACGTTCTCACTTGCAACAACCACCGTATGCAATTCTTTGCGATCATCGAAGTCATATTTTTCAATGGGAAGCGGGCGGCGTTGCAAGTCTCTGCGGTGCACTTGTCAAAACTGTTGTACCAGCAAACGGTGAGTATCTTACTCGGGAAGATATTGAGAGTAATGTTGTGCTTGGTGATGATATTCATAGTACGCCTACTCGGGTTATATCTCTTGAAAATACACTGGGTGGCATTGTAATACCGCTAGAGGAGACGCGACGTATAACGAATTTTGCTCGAGAAAACAATATCAAGGTTCACCTTGATGGTGCACGATTGTGGGAGGCAGTCGCTGCAGGTGCAGGTTCACTTACCGATTATTGTGCTCTGTTTGATAGTGTAAGTCTATGTTTCTCCAAGGGACTCGGAGCACCAGTCGGCAGTATTTTAGTTGGTGGAGAGGCTTTTATCAAACATGCTAGATGGATAAGAAAGTCGATTGGTGGCGGCCTTCGTCAGCCTGGTCTGTTAACAGCAACAGCCAGGGTTGCTCTGGATGAAACGTTTGGAAGTGGCCCTTGGGGTGAAGGCGGAAAGCTAAAAGGCACTCACTTTGTAGCGAAAAGGATAACTGCACTCTGGACGTCGCTAGGTGGGAAACTACTGAGGAGGACCGAGACAAATATGGTTTGGTTAGATCTTGAGGGTTCTAAGATTAGTGTAGAGACGTTTGTGAAAATTGGAGCAGAGCATGGGGTAGCACTCGAAGGTCCAAGGCTAGTGGTGCATTATCAAATTGAAGACGCTGCAGTAGAGAAGTTAAAAGCAGTTTTTGAACAGGTCCTGCTTAAAACCTAG", "modifications": "listed as DNA"}}}
{"system": "G. orontii MGH1", "assay": "Spray-induced gene silencing (SIGS), G. orontii spore production on A. thaliana (whole plant and detached leaf assays)", "type": "in vivo, Golovinomyces orontii", "settings": "topical dsRNA against G. orontii target (Gor Seq ID); detached leaf assay; n>=3", "units": {"G. orontii Spore Production on Arabidopsis, Detached Leaf Assay, % reduction": "%"}}
{"molecule": "B1", "G. orontii Spore Production on Arabidopsis, Detached Leaf Assay, % reduction": 50}
{"molecule": "B2", "G. orontii Spore Production on Arabidopsis, Detached Leaf Assay, % reduction": 46}
{"molecule": "B3", "G. orontii Spore Production on Arabidopsis, Detached Leaf Assay, % reduction": 68}
{"molecule": "B4", "G. orontii Spore Production on Arabidopsis, Detached Leaf Assay, % reduction": 55}
